# Source: IntAct's records for PubMed 24937458
# B1: Lysine-specific demethylase 5B (Homo sapiens), Q9UGL1 (parent)
# chain: MEAATTLHPGPRPALPLGGPGPLGEFLPPPECPVFEPSWEEFADPFAFIHKIRPIAEQTGICKVRPPPDWQPPFACDVDKLHFTPRIQRLNELEAQTRVKLNFLDQIAKYWELQGSTLKIPHVERKILDLFQLNKLVAEEGGFAVVCKDRKWTKIATKMGFAPGKAVGSHIRGHYERILNPYNLFLSGDSLRCLQKPNLTTDTKDKEYKPHDIPQRQSVQPSETCPPARRAKRMRAEAMNIKIEPEETTEARTHNLRRRMGCPTPKCENEKEMKSSIKQEPIERKDYIVENEKEKPKSRSKKATNAVDLYVCLLCGSGNDEDRLLLCDGCDDSYHTFCLIPPLHDVPKGDWRCPKCLAQECSKPQEAFGFEQAARDYTLRTFGEMADAFKSDYFNMPVHMVPTELVEKEFWRLVSTIEEDVTVEYGADIASKEFGSGFPVRDGKIKLSPEEEEYLDSGWNLNNMPVMEQSVLAHITADICGMKLPWLYVGMCFSSFCWHIEDHWSYSINYLHWGEPKTWYGVPGYAAEQLENVMKKLAPELFVSQPDLLHQLVTIMNPNTLMTHEVPVYRTNQCAGEFVITFPRAYHSGFNQGFNFAEAVNFCTVDWLPLGRQCVEHYRLLHRYCVFSHDEMICKMASKADVLDVVVASTVQKDMAIMIEDEKALRETVRKLGVIDSERMDFELLPDDERQCVKCKTTCFMSAISCSCKPGLLVCLHHVKELCSCPPYKYKLRYRYTLDDLYPMMNALKLRAESYNEWALNVNEALEAKINKKKSLVSFKALIEESEMKKFPDNDLLRHLRLVTQDAEKCASVAQQLLNGKRQTRYRSGGGKSQNQLTVNELRQFVTQLYALPCVLSQTPLLKDLLNRVEDFQQHSQKLLSEETPSAAELQDLLDVSFEFDVELPQLAEMRIRLEQARWLEEVQQACLDPSSLTLDDMRRLIDLGVGLAPYSAVEKAMARLQELLTVSEHWDDKAKSLLKARPRHSLNSLATAVKEIEEIPAYLPNGAALKDSVQRARDWLQDVEGLQAGGRVPVLDTLIELVTRGRSIPVHLNSLPRLETLVAEVQAWKECAVNTFLTENSPYSLLEVLCPRCDIGLLGLKRKQRKLKEPLPNGKKKSTKLESLSDLERALTESKETASAMATLGEARLREMEALQSLRLANEGKLLSPLQDVDIKICLCQKAPAAPMIQCELCRDAFHTSCVAVPSISQGLRIWLCPHCRRSEKPPLEKILPLLASLQRIRVRLPEGDALRYMIERTVNWQHRAQQLLSSGNLKFVQDRVGSGLLYSRWQASAGQVSDTNKVSQPPGTTSFSLPDDWDNRTSYLHSPFSTGRSCIPLHGVSPEVNELLMEAQLLQVSLPEIQELYQTLLAKPSPAQQTDRSSPVRPSSEKNDCCRGKRDGINSLERKLKRRLEREGLSSERWERVKKMRTPKKKKIKLSHPKDMNNFKLERERSYELVRSAETHSLPSDTSYSEQEDSEDEDAICPAVSCLQPEGDEVDWVQCDGSCNQWFHQVCVGVSPEMAEKEDYICVRCTVKDAPSRK
# partner: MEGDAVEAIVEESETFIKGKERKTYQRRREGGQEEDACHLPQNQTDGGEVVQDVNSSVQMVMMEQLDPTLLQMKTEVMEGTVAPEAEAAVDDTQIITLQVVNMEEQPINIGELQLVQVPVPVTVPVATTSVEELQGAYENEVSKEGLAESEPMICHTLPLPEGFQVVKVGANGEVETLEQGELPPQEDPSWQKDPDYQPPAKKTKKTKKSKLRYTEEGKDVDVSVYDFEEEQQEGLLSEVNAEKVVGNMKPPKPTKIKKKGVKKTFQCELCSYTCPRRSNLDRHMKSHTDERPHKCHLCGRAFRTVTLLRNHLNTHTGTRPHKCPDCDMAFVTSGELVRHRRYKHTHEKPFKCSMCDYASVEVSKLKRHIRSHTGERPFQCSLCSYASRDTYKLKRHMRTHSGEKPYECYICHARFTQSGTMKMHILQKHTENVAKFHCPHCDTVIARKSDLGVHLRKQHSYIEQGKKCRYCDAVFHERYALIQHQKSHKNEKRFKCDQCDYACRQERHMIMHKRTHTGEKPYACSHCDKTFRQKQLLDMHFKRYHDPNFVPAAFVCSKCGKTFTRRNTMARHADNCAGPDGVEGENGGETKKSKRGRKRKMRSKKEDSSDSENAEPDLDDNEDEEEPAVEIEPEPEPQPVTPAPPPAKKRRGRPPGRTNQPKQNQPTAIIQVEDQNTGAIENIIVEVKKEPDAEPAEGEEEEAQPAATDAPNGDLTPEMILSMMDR
# Variants of: B1
# Conditions: with ctcf_human CTCF
row,effect of a mutation on the interaction,Variant
1,decreasing interaction strength,K1435R
